Target: alphaVbeta3 integrin (human) (UniProt P06756)
Experiment: ELISA, purified antibody on alphaVbeta3

Chain of alphaVbeta3 integrin (human) (P06756 31-1048, chain 1 of 2): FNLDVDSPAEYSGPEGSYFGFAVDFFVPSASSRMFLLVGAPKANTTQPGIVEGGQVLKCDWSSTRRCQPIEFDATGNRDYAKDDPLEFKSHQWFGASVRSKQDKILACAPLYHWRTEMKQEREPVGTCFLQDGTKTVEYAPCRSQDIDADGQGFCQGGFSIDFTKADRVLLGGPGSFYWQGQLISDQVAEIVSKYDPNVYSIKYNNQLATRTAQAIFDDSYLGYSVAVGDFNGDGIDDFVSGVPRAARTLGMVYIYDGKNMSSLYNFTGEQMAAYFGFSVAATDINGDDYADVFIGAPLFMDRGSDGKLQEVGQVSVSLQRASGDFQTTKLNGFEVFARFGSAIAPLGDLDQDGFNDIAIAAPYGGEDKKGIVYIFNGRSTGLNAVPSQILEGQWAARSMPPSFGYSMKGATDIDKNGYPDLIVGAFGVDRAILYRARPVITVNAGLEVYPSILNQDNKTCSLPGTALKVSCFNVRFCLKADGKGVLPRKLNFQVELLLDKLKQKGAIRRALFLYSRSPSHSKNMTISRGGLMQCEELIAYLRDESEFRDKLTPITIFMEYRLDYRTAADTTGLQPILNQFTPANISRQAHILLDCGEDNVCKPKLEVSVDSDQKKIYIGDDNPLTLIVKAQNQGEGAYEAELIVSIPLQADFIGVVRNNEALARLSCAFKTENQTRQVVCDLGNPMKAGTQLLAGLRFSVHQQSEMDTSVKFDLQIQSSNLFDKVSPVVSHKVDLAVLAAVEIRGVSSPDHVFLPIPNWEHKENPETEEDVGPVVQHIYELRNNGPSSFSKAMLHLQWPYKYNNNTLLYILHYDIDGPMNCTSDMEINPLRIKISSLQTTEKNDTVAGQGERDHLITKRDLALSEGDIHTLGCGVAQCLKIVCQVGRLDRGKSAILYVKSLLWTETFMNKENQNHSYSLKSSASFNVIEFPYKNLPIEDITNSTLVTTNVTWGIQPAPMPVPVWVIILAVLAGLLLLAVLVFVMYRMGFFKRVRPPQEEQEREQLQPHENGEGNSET
Chain of alphaVbeta3 integrin (human) (P05106 27-788, chain 2 of 2, further chain): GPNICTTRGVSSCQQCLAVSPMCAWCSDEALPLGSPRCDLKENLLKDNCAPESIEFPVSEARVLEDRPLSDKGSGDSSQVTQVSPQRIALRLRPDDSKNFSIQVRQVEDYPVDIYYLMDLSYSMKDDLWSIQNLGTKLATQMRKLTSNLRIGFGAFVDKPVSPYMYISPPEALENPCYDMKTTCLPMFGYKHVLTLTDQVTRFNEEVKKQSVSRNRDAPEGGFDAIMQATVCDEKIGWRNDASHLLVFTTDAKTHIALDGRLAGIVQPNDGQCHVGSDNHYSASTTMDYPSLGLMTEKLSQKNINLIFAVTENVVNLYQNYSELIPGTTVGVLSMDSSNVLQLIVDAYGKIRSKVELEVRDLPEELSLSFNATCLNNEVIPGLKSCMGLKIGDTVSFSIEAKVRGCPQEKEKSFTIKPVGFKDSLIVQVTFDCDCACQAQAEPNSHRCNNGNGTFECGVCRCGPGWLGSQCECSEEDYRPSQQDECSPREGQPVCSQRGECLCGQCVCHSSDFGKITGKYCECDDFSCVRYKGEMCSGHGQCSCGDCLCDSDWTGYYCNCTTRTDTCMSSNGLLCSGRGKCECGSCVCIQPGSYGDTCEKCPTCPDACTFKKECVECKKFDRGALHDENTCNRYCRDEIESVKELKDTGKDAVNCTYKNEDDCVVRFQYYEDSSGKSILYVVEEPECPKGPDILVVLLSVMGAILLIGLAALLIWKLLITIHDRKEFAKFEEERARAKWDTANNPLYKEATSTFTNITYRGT

EC50: 0.07 µg/mL
B1: c7E3 IgG (antibody, INN chains, looked up, V domains shown)
VH: EVQLQQSGTVLARPGASVKMSCEASGYTFTNYWMHWVKQRPGQGLEWIGAIYPGNSDTSYIQKFKGKAKLTAVTSTTSVYMELSSLTNEDSAVYYCTLYDGYYVFAYWGQGTLVTVSA
VL: EIVLTQSPVTLSVTPGDSVSLSCRASRDISNNLHWFQQTSHESPRLLIKYASQSMSGIPSRFSGSGSGTDFTLSINSVETEDFGMYFCQQTNSWPYTFGGGTKLEIK
modifications: IgG
